From patent US20200087400A1 (EUREKA THERAPEUTICS, published 2020) come the findings set out here.

In one test the target is T1, Bio-P19 member A2E-14 (chain 2: C-terminal BirA substrate peptide (BSP), enzymatically biotinylated; its letters are not printed in the patent and it is left out).
T1 construct: also called biotinylated control peptide A2E-14/HLA-A*02:01 monomer
Put plainly: phage ELISA, streptavidin plate, anti-M13-HRP. The method, then: (§1) Individual phage clones from enriched phage display panning pools against PSA146/HLA-A*02:01 complex were incubated in the coated plates. Binding of the phage clones was detected by HRP-conjugated anti-M13 antibodies and developed using HRP substrate. The absorbance was read at 450 nm. […] Then, unique antibody clones were identified through DNA sequencing of ELISA-positive clones. […] T2 cells loaded with different peptides and β2M were first stained with purified scFv phage clones, followed by staining with a mouse anti-M13 mAb, and finally R-PE conjugated horse anti-mouse IgG from Vector Labs. Each step of the staining was performed for between 30-60 minutes on ice and the cells were washed twice between stainings. All 16 clones recognized PSA146-loaded T2 cells specifically. FIG. 3 provides examples of PSA146/HLA-A*02:01 specific phage clone binding to peptide-loaded T2 cells through FACS.

The target in a further test is T2, Bio-P19 member A2E-5 (chain 2 carries a C-terminal BirA substrate peptide (BSP), enzymatically biotinylated; the BSP letters are not given in the patent and are left out).
T2 construct: also called biotinylated control peptide A2E-5/HLA-A*02:01 monomer
Put plainly: phage ELISA, streptavidin plate, anti-M13-HRP. The method, then:
as §1
For orientation: An ELISA detects its analyte on a solid surface through an enzyme-linked reagent.

Another test has as its target T3, Bio-P19 member A2E-16 (chain 2: C-terminal BirA substrate peptide (BSP), enzymatically biotinylated; its letters are not printed in the patent and it is left out).
T3 construct: also called biotinylated control peptide A2E-16/HLA-A*02:01 monomer
Nature of the test: phage ELISA, streptavidin plate, anti-M13-HRP. The procedure: as §1

Test [1] has as its target T4, HLA-A*02:01 on T2 cells with no peptide loaded (human).
T4 construct: TAP-deficient T2 cells, no peptide loaded from outside; also called T2 cells without peptide loading
Put plainly: flow cytometry, phage on T2 cells, anti-M13 + R-PE anti-mouse IgG. The method, then: as §1

For test [2], the target named is T5, PSA 146-154 peptide/HLA-A*02:01 complex on the cell surface (human).
T5 construct: also called PSA146/HLA-A*02:01; PSA146-loaded T2 cells
The description is as above. The method, then:
as §1

Test [3] addresses T6, control peptide A2E-2/HLA-A*02:01 complex on T2 cells (member of the P19 mixture) (human).
T6 construct: Loaded on T2 cells as part of the mixture of 19 control peptides
Put plainly: flow cytometry, phage on T2 cells. The method, then:
as §1
(In flow cytometry, cells or beads pass a laser one at a time.)

The target of test [4] is T7, control peptide A2E-5/HLA-A*02:01 complex on T2 cells (member of the P19 mixture) (human).
T7 construct: Loaded on T2 cells as part of the mixture of 19 control peptides
Nature of the test: flow cytometry, phage on T2 cells. The method, then: as §1

For test [5], the target named is T8, control peptide A2E-9/HLA-A*02:01 complex on T2 cells (member of the P19 mixture) (human).
T8 construct: Loaded on T2 cells as part of the mixture of 19 control peptides
Put plainly: flow cytometry, phage on T2 cells. The method, then: as §1

Test [6] has as its target T9, control peptide A2E-23/HLA-A*02:01 complex on T2 cells (member of the P19 mixture) (human).
T9 construct: Loaded on T2 cells as part of the mixture of 19 control peptides
Nature of the test: flow cytometry, phage on T2 cells. The procedure:
as §1

For test [7], the target named is T10, control peptide A2E-7/HLA-A*02:01 complex on T2 cells (member of the P19 mixture) (human).
T10 construct: Loaded on T2 cells as part of the mixture of 19 control peptides
Put plainly: flow cytometry, phage on T2 cells. The method, then: as §1

Test [8] has as its target T11, control peptide A2E-15/HLA-A*02:01 complex on T2 cells (member of the P19 mixture) (human).
T11 construct: Loaded on T2 cells as part of the mixture of 19 control peptides
Nature of the test: flow cytometry, phage on T2 cells. The procedure:
as §1

Test [9] has as its target T12, control peptide A2E-14/HLA-A*02:01 complex on T2 cells (member of the P19 mixture) (human).
T12 construct: Loaded on T2 cells as part of the mixture of 19 control peptides
Put plainly: flow cytometry, phage on T2 cells. The method, then: as §1

In test [10] the target is T13, control peptide A2E-19/HLA-A*02:01 complex on T2 cells (member of the P19 mixture) (human).
T13 construct: Loaded on T2 cells as part of the mixture of 19 control peptides
Put plainly: flow cytometry, phage on T2 cells. The procedure:
as §1

The target in test [11] is T14, control peptide A2E-4/HLA-A*02:01 complex on T2 cells (member of the P19 mixture) (human).
T14 construct: Loaded on T2 cells as part of the mixture of 19 control peptides
Nature of the test: flow cytometry, phage on T2 cells. The procedure:
as §1

The target of test [12] is T15, control peptide A2E-1/HLA-A*02:01 complex on T2 cells (member of the P19 mixture) (human).
T15 construct: Loaded on T2 cells as part of the mixture of 19 control peptides
Put plainly: flow cytometry, phage on T2 cells. The procedure: as §1

Test [13] has as its target T16, control peptide A2E-13/HLA-A*02:01 complex on T2 cells (member of the P19 mixture) (human).
T16 construct: Loaded on T2 cells as part of the mixture of 19 control peptides
Put plainly: flow cytometry, phage on T2 cells. The procedure: as §1

For test [14], the target named is T17, control peptide A2E-11/HLA-A*02:01 complex on T2 cells (member of the P19 mixture) (human).
T17 construct: Loaded on T2 cells as part of the mixture of 19 control peptides
Nature of the test: flow cytometry, phage on T2 cells. The procedure: as §1

The target in test [15] is T18, control peptide A2E-6/HLA-A*02:01 complex on T2 cells (member of the P19 mixture) (human).
T18 construct: Loaded on T2 cells as part of the mixture of 19 control peptides
Nature of the test: flow cytometry, phage on T2 cells. The procedure: as §1

Test [16] addresses T19, control peptide A2E-10/HLA-A*02:01 complex on T2 cells (member of the P19 mixture) (human).
T19 construct: Loaded on T2 cells as part of the mixture of 19 control peptides
Put plainly: flow cytometry, phage on T2 cells. The procedure:
as §1

Test [17] addresses T20, control peptide A2E-3/HLA-A*02:01 complex on T2 cells (member of the P19 mixture) (human).
T20 construct: Loaded on T2 cells as part of the mixture of 19 control peptides
Put plainly: flow cytometry, phage on T2 cells. The procedure:
as §1

For test [18], the target named is T21, control peptide A2E-17/HLA-A*02:01 complex on T2 cells (member of the P19 mixture) (human).
T21 construct: Loaded on T2 cells as part of the mixture of 19 control peptides
Nature of the test: flow cytometry, phage on T2 cells. The procedure:
as §1

Test [19] deals with T22, control peptide A2E-8/HLA-A*02:01 complex on T2 cells (member of the P19 mixture) (human).
T22 construct: Loaded on T2 cells as part of the mixture of 19 control peptides
Nature of the test: flow cytometry, phage on T2 cells. The procedure: as §1

Test [20] addresses T23, control peptide A2E-16/HLA-A*02:01 complex on T2 cells (member of the P19 mixture) (human).
T23 construct: Loaded on T2 cells as part of the mixture of 19 control peptides
Nature of the test: flow cytometry, phage on T2 cells. The procedure:
as §1

For test [21], the target named is T24, control peptide A2E-21/HLA-A*02:01 complex on T2 cells (member of the P19 mixture) (human).
T24 construct: Loaded on T2 cells as part of the mixture of 19 control peptides
Put plainly: flow cytometry, phage on T2 cells. The procedure: as §1

Positions count from the first letter of the chain named.

B1: PSA146/HLA-A*02:01-specific scFv phage clone #6 (scFv, V domains shown)
VH: EVQLVQSGAEVKKPGASVKVSCKASGYTFTGYYIHWVRQAPGQGLEWMGGFDPEDGETIYAQKFQDRVTMTADTSTDTAYMELSSLRSEDTAVYYCARYGFDYWGQGTLVTVSS
VL: QAVVTQEPSLTVSPGGTVTLTCASSTGAVTSGYYPNWFQLKPGQAPRALIYTTGKKHSWAPARFSGSLLGGKAALTLSGVQPEDEAEYYCLLYSGGVWVFGGGTKLTVLG
On to B1, for which the binding result with Bio-P19 member A2E-14 is given as “no binding”; with Bio-P19 member A2E-5, “no binding”; in the test with Bio-P19 member A2E-16, “no binding”; in [1] it was “no binding”; in test [2], “binds”; in test [3] it was “no binding”. The binding result in [4], in test [5], in test [6], in test [7], in test [8] and in test [9] was “no binding” each time. Also, the binding result in [10], in test [11], in test [12], in [13], in test [14] and in [15] was “no binding” each time. The binding result in test [16], in [17], in test [18], in [19], in [20] and in test [21] was “no binding” each time.

B2: PSA146/HLA-A*02:01-specific scFv phage clone #2 (scFv, V domains shown)
VH: EVQLVQSGAEVKRPGSSVKVSCKASGGTFSSYAINWVRRAPGQGLEWMGKIIPIPGITNYAQKFQDRVTFTADTSTNIAYMELSSLRSEDTAMYYCARSYKWGSSLVDAWGQGTLVTVSS
VL: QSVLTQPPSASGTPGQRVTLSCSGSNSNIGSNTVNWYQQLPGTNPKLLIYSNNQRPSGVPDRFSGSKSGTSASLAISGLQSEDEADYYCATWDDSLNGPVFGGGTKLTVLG
Turning to B2, the binding result in the test with Bio-P19 member A2E-14 is “no binding”; with Bio-P19 member A2E-5, “no binding”; with Bio-P19 member A2E-16, “no binding”; in test [1], “no binding”; in test [2] it was “binds”; in test [3] it was “no binding”. For the same molecule, the binding result in test [4], in [5], in test [6], in test [7], in test [8] and in test [9] was “no binding” each time. Also, the binding result in test [10], in test [11], in [12], in test [13], in [14] and in test [15] was “no binding” in each case. The binding result in [16], in [17], in test [18], in test [19], in [20] and in test [21] was “no binding” in each case.

B3: PSA146/HLA-A*02:01-specific scFv phage clone #3 (scFv, V domains shown)
VH: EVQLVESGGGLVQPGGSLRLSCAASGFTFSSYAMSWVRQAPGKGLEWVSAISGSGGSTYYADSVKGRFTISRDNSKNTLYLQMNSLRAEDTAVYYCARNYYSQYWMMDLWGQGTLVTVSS
VL: QSVLTQPPSVSGAPGQRVTISCTGSSSNFGAGYDVHWYQQLPGAAPKLLIYGDTNRPSGVPDRFSGSKSGTSASLAITGLQAEDEADYYCQSYDTSLSGSVFGGGTKLTVLG
Turning to B3, the binding result with Bio-P19 member A2E-14 is listed as “no binding”; in the test with Bio-P19 member A2E-5, “no binding”; with Bio-P19 member A2E-16 it was “no binding”; in test [1], “no binding”; in test [2] it was “binds”; in test [3], “no binding”. For the same molecule, the binding result in [4], in [5], in [6], in test [7], in test [8] and in test [9] was “no binding” throughout. Moreover, the binding result in test [10], in test [11], in [12], in test [13], in test [14] and in test [15] was “no binding” throughout. The binding result in [16], in [17], in test [18], in [19], in [20] and in test [21] was “no binding” each time.

B4: PSA146/HLA-A*02:01-specific scFv phage clone #5 (scFv, V domains shown)
VH: QVQLVQSGAEVKKPGDSVKVSCKPSGYNFLNYGINWVRQAPGQGLEWMGWISTYTGNTNYAQKLQGRVTFTTDTSTSTAYMEMRSLRSDDTAVYYCARSSEYYTWDHWGQGTLVTVSS
VL: B3 VL with F29I, A44T, D53N, T54S, T95S, S100W
As to B4, the binding result with Bio-P19 member A2E-14 is on record as “no binding”; with Bio-P19 member A2E-5, “no binding”; with Bio-P19 member A2E-16 it was “no binding”; in test [1] it was “no binding”; in test [2], “binds”; in [3] it was “no binding”. Besides, the binding result in test [4], in [5], in test [6], in test [7], in test [8] and in [9] was “no binding” throughout. Besides, the binding result in test [10], in test [11], in test [12], in test [13], in [14] and in test [15] was “no binding” each time. For the same molecule, the binding result in test [16], in test [17], in test [18], in [19], in test [20] and in test [21] was “no binding” in each case.
